# Source: US20240327543A1 (SHENGHE CHINA BIOPHARMACEUTICAL, published 2024)
# Like-named read-outs stand apart in the source and are kept apart here.
# T1: Human-NKP30-His (human, UniProt O14931 19-135, limits assumed)
# T1 construct: Coated on the ELISA plate at 0.5 µg/mL; also called NKP30 protein; not shown: His tag
# T1 sequence (looked up): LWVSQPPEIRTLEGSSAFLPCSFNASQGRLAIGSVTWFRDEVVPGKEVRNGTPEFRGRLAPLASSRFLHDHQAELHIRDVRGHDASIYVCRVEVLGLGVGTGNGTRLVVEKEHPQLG
# B1: NKP30 humanized antibody (SEQ ID No.32) (antibody, human IgG4 S228P, V domains shown)
# VH: EVQLVESGGGLVQPGGSLRLSCAASGITFSRSVMGWFRQAPGKLRELVAGITSDDNTDYADSVKGRFTISRDNSKNTLYLQMNSLRAEDTAVYYCNILPDSRLGWGQGTLVTVSS
# notes: It was detected with anti-human IgG-Fc; also called positive control; NKP30 monoclonal antibody
# Legend:
# Human-NKP30-His [1] = target: T1, Human-NKP30-His; experiment: ELISA, plate coated with Human-NKP30-His, detection with HRP goat anti-human IgG-Fc
# Method: (§1) Human-NKP30-His was diluted to 0.5 μg/mL with PBS buffer at pH 7.4, added into the 96-well ELISA plate at 100 μL per well, coated overnight at 4° C., and blocked with 1% BSA blocking solution for 1 hour. The plate was washed 3 times with PBST, and the constructed antibodies were diluted to 10 μg/mL with 0.5% BSA sample diluent as the starting concentration, and then diluted by 3-fold gradient (11 gradients in total). A negative control (blank well and IgG1 isotype control) and a positive control were set, and the positive control was a NKP30 humanized antibody (sequence shown in SEQ ID No.32), and incubated at 37° C. for 1 h at 100 μL per well. […] The absorbance value of each well in the 96-well plate was determined by selecting the wavelength of 450 nm and the reference wavelength of 570 nm on a multifunctional enzyme marker, and the absorbance value (OD)=OD₄₅₀ₙₘ−OD₅₇₀ₙₘ. The logarithm of the concentration of the constructed antibodies were taken as the abscissa, and the measured absorbance value of each well was taken as the ordinate, and the Sigmoidaldose-response (Variable Slope) method (GraphPad Prism software, GraphPad Software, San Diego, California) was selected for nonlinear regression to obtain the binding curve of the target antibody to NKP30 protein.
# Human-NKP30-His [2] = target: T1, Human-NKP30-His; experiment: as above; remark: listed apart in the source
# Method: as §1
binder,measurement,setting,value
B1,EC50 (read off the curve),Human-NKP30-His [1],~0.03 µg/mL
same,EC50 (read off the curve),Human-NKP30-His [2],~0.03 µg/mL
